{"source": "paper PMC4021431", "about": "“Identification of glutathione (GSH)-independent glyoxalase III from Schizosaccharomyces pombe” (BMC Evolutionary Biology, 2014)", "proteins": {"B1": {"name": "ScHsp31 (Saccharomyces cerevisiae S288C) (protein)", "chain": "MAPKKVLLALTSYNDVFYSDGAKTGVFVVEALHPFNTFRKEGFEVDFVSETGKFGWDEHSLAKDFLNGQDETDFKNKDSDFNKTLAKIKTPKEVNADDYQIFFASAGHGTLFDYPKAKDLQDIASEIYANGGVVAAVCHGPAIFDGLTDKKTGRPLIEGKSITGFTDVGETILGVDSILKAKNLATVEDVAKKYGAKYLAPVGPWDDYSITDGRLVTGVNPASAHSTAVRSIDALKN", "notes": "full length (237 aa), C-terminal His6 (pET28a), E. coli BL21(DE3), Ni-NTA"}, "B2": {"name": "Hsp3102 (Schizosaccharomyces pombe 972h-) (protein)", "chain": "MSIAKGKNALLVASSYYGPFYPDGKNTGVHFSELLIPYNVFKKAGFNVQFVSENGSYKFDDHSIEESKLGDFERKVFNDKNDDFWTNLNNMKKASDIVGKDYQLLFVAGGHAAMFDLPKATNLQAVAREVFTNGGVLSAVCHGPVLLANVKNPQSVEGKTVVYHKHVTAFNKAGEEKMGVMDELKKRGMKSLNEIFAEAGATFIDPPNPNVNFTQIDGKIVTGVNPQSAKSTAEAAVSAL", "notes": "full length (240 aa), C-terminal His tag (pESP3), expressed in S. pombe yAS56, Ni-NTA"}, "B3": {"name": "SpDJ-1 (Schizosaccharomyces pombe 972h-) (protein)", "chain": "MVKVCLFVADGTDEIEFSAPWGIFKRAEIPIDSVYVGENKDRLVKMSRDVEMYANRSYKEIPSADDFAKQYDIAIIPGGGLGAKTLSTTPFVQQVVKEFYKKPNKWIGMICAGTLTAKTSGLPNKQITGHPSVRGQLEEGGYKYLDQPVVLEENLITSQGPGTAMLFGLKLLEQVASKDKYNAVYKSLSMP", "notes": "full length (191 aa), C-terminal His6 (pET28a, NcoI/XhoI), E. coli BL21(DE3), Ni-NTA"}, "B4": {"name": "SpDJ-1 (Schizosaccharomyces pombe 972h-; H130A) (protein)", "chain": "B3 chain with H130A", "notes": "as for B3"}, "B5": {"name": "Hsp3101 (Schizosaccharomyces pombe 972h-) (protein)", "chain": "MASEGKVLLVASSYYGPFYPDGMNTGVHFAELLIPYQVFREAGYEVQLTSETGKCKFDDHSIKKSALGEVERDAFDNKDNEFWYALKDIKPADKINYKEFCIMFIAGGHAAMFDLPHATNLQTLAQQIYASNGVLAAVCHGPVMLPFVDDTKSPEGRSVVYGKKVTAFNSTGELVMGVSSALRERNMQDLNSLFREAGAEFVDPPTPMSDFTQVDGRIVTGVNPMSAKSTAEAAIKVSQSLRKT", "notes": "full length (244 aa), C-terminal His6 (pET28a), E. coli BL21(DE3), Ni-NTA"}}, "assay_in_all_cases": "DNPH colorimetric glyoxalase III assay, A540", "key": {"[1]": {"substrate": "CC(=O)C=O", "assay_type": "biochemical, Saccharomyces cerevisiae", "conditions": "GSH-independent, 100 mM Na3PO4 pH 6.8, 45 °C", "excerpt": "DNPH colorimetric glyoxalase III assay, A540 on ScHsp31"}, "[2]": {"substrate": "CC(=O)C=O", "assay_type": "biochemical, Schizosaccharomyces pombe", "conditions": "GSH-independent, 100 mM Na3PO4 pH 6.8, 45 °C", "excerpt": "DNPH colorimetric glyoxalase III assay, A540 on Hsp3102"}, "[3]": {"substrate": "CC(=O)C=O", "assay_type": "biochemical, Schizosaccharomyces pombe", "conditions": "GSH-independent, 100 mM Na3PO4 pH 6.8, 45 °C, MG 0.5-3 mM (below Km)", "excerpt": "DNPH colorimetric glyoxalase III assay, A540 on SpDJ-1"}, "[4]": {"substrate": "CC(=O)C=O", "assay_type": "biochemical, Schizosaccharomyces pombe", "conditions": "GSH-independent, 100 mM Na3PO4 pH 6.8, 45 °C", "excerpt": "DNPH colorimetric glyoxalase III assay, A540 on Hsp3101", "remark": "listed apart in the source"}}, "note": "Substitutions are numbered along the chain they refer to. Names and notes keep the numbering of the source."}
{"protein": "B1", "values": [{"measurement": "Km", "setting": "[1]", "result": 1.5, "unit": "mM"}, {"measurement": "kcat", "setting": "[1]", "result": 1.25, "unit": "s⁻¹"}, {"measurement": "kcat/Km", "setting": "[1]", "result": 850, "unit": "M⁻¹ s⁻¹"}]}
{"protein": "B2", "values": [{"measurement": "Km", "setting": "[2]", "result": 2.7, "unit": "mM"}, {"measurement": "kcat", "setting": "[2]", "result": 0.967, "unit": "s⁻¹"}, {"measurement": "kcat/Km", "setting": "[2]", "result": 350, "unit": "M⁻¹ s⁻¹"}]}
{"protein": "B3", "values": [{"measurement": "Km", "setting": "[3]", "result": 10.8, "unit": "mM"}, {"measurement": "kcat", "setting": "[3]", "result": 1.43, "unit": "s⁻¹"}, {"measurement": "kcat/Km", "setting": "[3]", "result": 132, "unit": "M⁻¹ s⁻¹"}]}
{"protein": "B4", "values": [{"measurement": "Km", "setting": "[3]", "result": 37.3, "unit": "mM"}, {"measurement": "kcat", "setting": "[3]", "result": 1.09, "unit": "s⁻¹"}, {"measurement": "kcat/Km", "setting": "[3]", "result": 30, "unit": "M⁻¹ s⁻¹"}]}
{"protein": "B5", "values": [{"measurement": "Km", "setting": "[4]", "result": 1.4, "unit": "mM"}, {"measurement": "kcat", "setting": "[4]", "result": 0.518, "unit": "s⁻¹"}, {"measurement": "kcat/Km", "setting": "[4]", "result": 383, "unit": "M⁻¹ s⁻¹"}]}
